Data reported in PMC4810302 (The Journal of Cell Biology, 2016).
Where no end group is shown, it is not given here.

Molecular target: His-G3BP1 (human, UniProt Q13283 1-466)
Assay: pull-down

Sequence of His-G3BP1 (Q13283 whole entry): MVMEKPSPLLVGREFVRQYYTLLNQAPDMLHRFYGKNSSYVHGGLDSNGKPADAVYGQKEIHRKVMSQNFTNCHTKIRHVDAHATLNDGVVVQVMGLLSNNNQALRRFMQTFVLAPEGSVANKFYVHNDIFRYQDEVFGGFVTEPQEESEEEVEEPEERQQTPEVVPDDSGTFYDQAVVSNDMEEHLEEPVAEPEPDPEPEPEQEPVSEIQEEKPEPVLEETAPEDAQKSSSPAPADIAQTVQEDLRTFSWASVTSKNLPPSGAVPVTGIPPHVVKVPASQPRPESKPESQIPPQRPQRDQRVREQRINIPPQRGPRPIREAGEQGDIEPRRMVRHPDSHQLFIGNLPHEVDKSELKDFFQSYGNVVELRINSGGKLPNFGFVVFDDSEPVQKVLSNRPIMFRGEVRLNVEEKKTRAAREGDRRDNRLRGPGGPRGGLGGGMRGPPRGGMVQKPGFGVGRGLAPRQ

YIFGDFSPDEFNQFFVTP-biotin [USP10_(8–25)WT peptide]: binds.
